Results as given in US7056679 (ANTYRA, dated 2006).
No end group written: not given here.

T1: DGI-2 (UniProt Q15004 1-111, limits assumed)
T1 construct: Soluble recombinant DGI-2 made by in vitro translation (RTS, pIVEX2.3-MCS vector) and coated on plates for the ELISA; vector tag not described; also called KIAA0101; DGI-2 polypeptide
T1 sequence (looked up): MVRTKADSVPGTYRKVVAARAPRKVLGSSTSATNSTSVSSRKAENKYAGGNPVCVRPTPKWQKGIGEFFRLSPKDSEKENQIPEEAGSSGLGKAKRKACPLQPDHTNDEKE

B1: DGI-2-20F-PP-C7 (peptide)
peptide: SSVWATWGSDLRTFGSVGFL
notes: on M13 phage, pIII fusion with E-tag
B2: DGI-2-20R-3-C7 (peptide)
peptide: MGVVLECEGGWSIPGQTCYF
modifications: not fully specified; cysteine pairing not given here
notes: as for B1
B3: DGI-2-40F-4-F6 (peptide)
peptide: SYRNFAMQSSLQVRRGSVVEDGTCWWEGVRCYSG
notes: as for B1
B4: DGI-2-20F-PP-C4 (peptide)
peptide: SIILAGCVWVMPCGQNLGGV
modifications: not fully specified (bridges); cysteine pairing not given here
notes: as for B1
B5: DGI-2-20R-4-F6 (peptide)
peptide: GNKCFPPHDLFWDPCDQLQS
modifications: not fully specified (bridges); cysteine pairing not given here
notes: as for B1
B6: DGI-2-20R-4-H12 (peptide)
peptide: MSTLQGPGHLFQMLRRASLG
notes: as for B1
B7: DGI-2-20R-3-B12 (peptide)
peptide: DGKHLTKWSGRGWWSAWVGG
notes: as for B1
B8: DGI-2-20R-3-B7 (peptide)
peptide: SWRLWVSGELQGDRRKGLRG
notes: as for B1
B9: DGI-2-20R-3-B11 (peptide)
peptide: GWGCSVPGILCVGGHRQGGG
modifications: not fully specified; cysteine pairing not given here
notes: as for B1
B10: DGI-2-20R-4-E82 (peptide)
peptide: DAGIGWVGSMWFPPGCIGAC
modifications: not fully specified (bridges); cysteine pairing not given here
notes: as for B1
B11: DGI-2-20R-3-D7 (peptide)
peptide: VHSQGRMWAIPGLRGGTGAS
notes: as for B1
B12: DGI-2-20F-3-B102 (peptide)
peptide: GLRACDTYLGFCVGARRIDD
notes: as for B1
B13: DGI-2-20F-PP-D5 (peptide)
peptide: WVVALRRIRLGLRRGVECLL
notes: as for B1
B14: DGI-2-20R-3-A7 (peptide)
peptide: VLQRSLWKDWVDGVMHGGGSRGV
notes: as for B1
B15: DGL-2-20R-3-B6 (peptide)
peptide: TSCQVMFLAGQHLLSRVPRL
notes: as for B1
B16: DGL-2-20R-3-D6 (peptide)
peptide: ACSVGTALVFPQRWWYLGRS
notes: as for B1
B17: DGI-2-40F-3-D11 (peptide)
peptide: LHFGSVMGWRPPGSLWSRPFGQVHPRSWSGS
notes: as for B1
B18: DGI-2-20R-4-F1212 (peptide)
peptide: MSSTAWTDRILQRGIGLGPV
notes: as for B1
B19: DGI-2-20F-PP-E6 (peptide)
peptide: EVFVSVWVFRFRVMPVTPGGT
notes: as for B1
B20: DGI-2-20R-4-E2 (peptide)
peptide: TANGHRYGGCGLWCKWMSGM
modifications: not fully specified; cysteine pairing not given here
notes: as for B1
B21: DGI-2-20R-3-B3 (peptide)
peptide: MFQDVACDLWHSVRCLRRDV
modifications: not fully specified (bridges); cysteine pairing not given here
notes: as for B1
B22: DGI-2-20F-3-C1 (peptide)
peptide: GSVLERGCLEFSGFCFSLGH
notes: as for B1
B23: DGI-2-20F-PP-C10 (peptide)
peptide: DRSRAPLCADKSGRWQRYRR
notes: as for B1
B24: DGI-2-40F-3-C8 (peptide)
peptide: YGTAGLFLRRACTMSDPGDPLGRRGYTGWGVLWDEWVTGS
notes: as for B1
B25: DGI-2-20F-PP-C3 (peptide)
peptide: LGRTFVWGTCLHLSVSRFGH
notes: as for B1
B26: DGI-2-20F-3-C12 (peptide)
peptide: LTPYSLARSWLSGRPSTGAT
notes: as for B1
B27: DGI-2-20R-4-G7 (peptide)
peptide: YTPASILTGFQRGYEGAGNG
notes: as for B1
B28: DGI-2-20F-PP-D9 (peptide)
peptide: VRAVYSRDAYNEVGRWMRVGI
notes: as for B1
B29: DGI-2-20R-3-C8 (peptide)
peptide: VVRQGCMAFSGLCSGVTESE
modifications: not fully specified; cysteine pairing not given here
notes: as for B1
B30: DGI-2-20F-PP-G6 (peptide)
peptide: GSTRLRVTVRFCSETGTPGC
modifications: not fully specified; cysteine pairing not given here
notes: as for B1
B31: DGI-2-40F-3-D7 (peptide)
peptide: ALRSLGSGGFGWQAGRASPQGMTHFPYFGWSGMPTARVRP
notes: as for B1
B32: DGI-2-20C-4-H316 (peptide)
peptide: RWSICRGLQYSIPGCAVEDLSDVMA
notes: as for B1
B33: DGI-2-20F-3-A7 (peptide)
peptide: LSLLSVVVRSMGASAPQRQV
notes: as for B1
B34: DGI-2-20C-3-C1039 (peptide)
peptide: RPVVCLAGLTLAQFGWVFPGWRGWS
notes: as for B1
B35: DGI-2-40F-3-D6 (peptide)
peptide: GLEPVPFQTDKRIAMGWTREWLVNGYGAAHRRDARMQSGH
notes: as for B1
B36: DGI-2-20F-PP-A9 (peptide)
peptide: TFTRDVAGPAVSFVRLHSWN
notes: as for B1
B37: DGI-2-20E-3-A1 (peptide)
peptide: CRNFGVIWGAGWVSPGCEDI
modifications: not fully specified
notes: as for B1
B38: DGI-2-20R-4-H7 (peptide)
peptide: LSHPMSPLRAASQMALTQGV
notes: as for B1
B39: DGI-2-20F-PP-A4 (peptide)
peptide: RVSYEMLGRRRRSMHGSSMR
notes: as for B1
B40: DGI-2-40F-3-A1 (peptide)
peptide: REFFNQASRGAWGYMFREWVEG
notes: as for B1
B41: DGI-2-20R-3-A6 (peptide)
peptide: GGGRESWGGGWFMGWGSGAG
notes: as for B1
B42: DGI-2-20F-PP-C2 (peptide)
peptide: GLYQRGLAPRCRGERFGVRN
notes: as for B1
B43: DGI-2-40F-3-C92 (peptide)
peptide: RFWSVSYQGGRVMCREWGYCLPI
modifications: not fully specified (bridges); cysteine pairing not given here
notes: as for B1
B44: DGI-2-40F-3-C424 (peptide)
peptide: TVKFQGVVQERSRIAGFRYCGDHAVSWGLAGCPALRDKLQ
notes: as for B1
B45: DGI-2-20R-3-C10 (peptide)
peptide: SLSLYWDAQVGCEVFWGYCV
modifications: not fully specified; cysteine pairing not given here
notes: as for B1
B46: DGI-2-20F-PP-A3 (peptide)
peptide: SLFERSARSRYHGSPDCNGS
notes: as for B1
B47: DGI-2-20F-4-E3 (peptide)
peptide: RNWLDKDCVWMGDCGARAGE
notes: as for B1
B48: DGI-2-20F-PP-C9 (peptide)
peptide: YAMSSRECGIRNSGLILSMW
notes: as for B1
B49: DGI-2-20R-3-C4 (peptide)
peptide: SRPGWCSRGTAWGFPGCSSS
modifications: not fully specified (bridges); cysteine pairing not given here
notes: as for B1
B50: DGI-2-40F-3-D12 (peptide)
peptide: QGSAHVVRPPGVYDVPWKVGMFFHPQNWPNSWGRAYFRSG
notes: as for B1
B51: DGI-2-20F-4-F9 (peptide)
peptide: LPQSRWLSEAWASWVDGVVD
notes: as for B1

These binders were tested against T1, DGI-2 (assay: phage ELISA, coated DGI-2).
Experimental: For analysis of individual target binders, colonies were picked and phage prepared as described above using helper phage, M13KO7. Ninety-six-well microtiter plates were coated with 500 ng/well of specific target protein, 500 ng/well lactate dehydrogenase (LDH) irrelevant or non-specific target, 500 ng/well of positive control antibody raised against ETAG, and negative control of non-fat milk powder-PBS 2% at 4° C. overnight. Plates were then blocked with 350 microliters/well PBS containing 2% non-fat milk for 1 hr at room temperature. One hundred microliters per well of phage from isolated clones were added and plates were incubated at room temperature for 2 hr after centrifuging samples for 20 minutes at 3500 rpm at 4° C. The phage solution was then removed, and the wells were washed three times with PBS at room temperature. Antibody raised against M13 conjugated to horseradish peroxidase (Pharmacia) was diluted 1:3000 in PBS-Tween and added to each well (100 µl/well). Incubation was for 1 hr at room temperature, followed by washing with PBS-(0.5%) Tween 3 times as described. Color was developed by addition of ABTS solution (100 µl/well; Boehringer, Indianapolis, Ind.). Plates were analyzed at 405 nm. A clone was considered "positive" if the $A405$ of the well was $\geq$2-fold over background.

**Q.** Does B1 bind?
**A.** binds

**Q.** Does B2 bind?
**A.** binds

**Q.** Does B3 bind?
**A.** binds

**Q.** Does B4 bind?
**A.** binds

**Q.** Does B5 bind?
**A.** binds

**Q.** Does B6 bind?
**A.** binds

**Q.** Does B7 bind?
**A.** binds

**Q.** Does B8 bind?
**A.** binds

**Q.** Does B9 bind?
**A.** binds

**Q.** Does B10 bind?
**A.** binds

**Q.** Does B11 bind?
**A.** binds

**Q.** Does B12 bind?
**A.** binds

**Q.** Does B13 bind?
**A.** binds

**Q.** Does B14 bind?
**A.** binds

**Q.** Does B15 bind?
**A.** binds

**Q.** Does B16 bind?
**A.** binds

**Q.** Does B17 bind?
**A.** binds

**Q.** Does B18 bind?
**A.** binds

**Q.** Does B19 bind?
**A.** binds

**Q.** Does B20 bind?
**A.** binds

**Q.** Does B21 bind?
**A.** binds

**Q.** Does B22 bind?
**A.** binds

**Q.** Does B23 bind?
**A.** binds

**Q.** Does B24 bind?
**A.** binds

**Q.** Does B25 bind?
**A.** binds

**Q.** Does B26 bind?
**A.** binds

**Q.** Does B27 bind?
**A.** binds

**Q.** Does B28 bind?
**A.** binds

**Q.** Does B29 bind?
**A.** binds

**Q.** Does B30 bind?
**A.** binds

**Q.** Does B31 bind?
**A.** binds

**Q.** Does B32 bind?
**A.** binds

**Q.** Does B33 bind?
**A.** binds

**Q.** Does B34 bind?
**A.** binds

**Q.** Does B35 bind?
**A.** binds

**Q.** Does B36 bind?
**A.** binds

**Q.** Does B37 bind?
**A.** binds

**Q.** Does B38 bind?
**A.** binds

**Q.** Does B39 bind?
**A.** binds

**Q.** Does B40 bind?
**A.** binds

**Q.** Does B41 bind?
**A.** binds

**Q.** Does B42 bind?
**A.** binds

**Q.** Does B43 bind?
**A.** binds

**Q.** Does B44 bind?
**A.** binds

**Q.** Does B45 bind?
**A.** binds

**Q.** Does B46 bind?
**A.** binds

**Q.** Does B47 bind?
**A.** binds

**Q.** Does B48 bind?
**A.** binds

**Q.** Does B49 bind?
**A.** binds

**Q.** Does B50 bind?
**A.** binds

**Q.** Does B51 bind?
**A.** binds
